From doi:10.1101/2022.08.03.502284 (bioRxiv, 2022)

Target: the molecule itself
Experiment: ONE expansion microscopy of the purified protein

B1: full-length human GABAA receptor β3 subunit homopentamer (receptor)
chain: QSVNDPGNMSFVKETVDKLLKGYDIRLRPDFGGPPVCVGMNIDIASIDMVSEVNMDYTLTMYFQQYWRDKRLAYSGIPLNLTLDNRVADQLWVPDTYFLNDKKSFVHGVTVKNRMIRLHPDGTVLYGLRITTTAACMMDLRRYPLDEQNCTLEIESYGYTTDDIEFYWRGGDKAVTGVERIELPQFSIVEHRLVSRNVVFATGAYPRLSLSFRLKRNIGYFILQTYMPSILITILSWVSFWINYDASAARVALGITTVLTMTTINTHLRETLPKIPYVKAIDMYLMGCFVFVFLALLEYAFVNYIFFGRGPQRQKKLAEKTAKAKNDRSKSESNRVDAHGNILLTSLEVHNEMNEVSGGIGDTRNSAISFDNSGIQYRKQSMPREGHGRFLGDRSLPHKKTHLRRRSSQLKIKIPDLTDVNAIDRWSRIVFPFTFSLFNLVYWLYYVN
- binding result: binds
